Results on four molecules are retold here after article PMC5124697, “Expression Profiles and DNA-Binding Affinity of Five ERF Genes in Bunches of Vitis vinifera cv. Cardinal Treated with High Levels of CO2 at Low Temperature”.

What all share (assay): EMSA; EMSA: 2 ug protein in 20 ul, 80 nM biotin probe, 50 ng/ul poly(dI-dC), 2.5% glycerol, 1x binding buffer (composition and pH not given), room temperature 20 min; 6% native PAGE, 0.5x TBE; competition 500x unlabeled probe (50 uM unlabeled DNA listed)
Details in all cases: protein: recombinant; tags: N-terminal His (pTrcHisA); label: 3' biotin
On the technique in general: In EMSA bound probe runs differently from free probe, usually more slowly.

The target in series [1] is VviERF6L7-c (Vitis vinifera cv. Cardinal, UniProt A0A1L6BXF1 1-277).
VviERF6L7-c, sequence (A0A1L6BXF1 entry or part of it): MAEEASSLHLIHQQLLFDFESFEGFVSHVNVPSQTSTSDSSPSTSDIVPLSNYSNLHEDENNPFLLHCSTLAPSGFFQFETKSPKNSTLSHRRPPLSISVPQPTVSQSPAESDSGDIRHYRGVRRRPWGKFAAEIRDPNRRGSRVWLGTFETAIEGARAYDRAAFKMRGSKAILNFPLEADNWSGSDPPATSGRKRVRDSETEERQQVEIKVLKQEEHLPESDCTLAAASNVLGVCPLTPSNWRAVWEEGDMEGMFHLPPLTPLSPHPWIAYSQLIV
For series [2], the target named is VviERF10-c (Vitis vinifera cv. Cardinal, UniProt F6HIF5 1-204).
VviERF10-c, sequence (F6HIF5 entry or part of it): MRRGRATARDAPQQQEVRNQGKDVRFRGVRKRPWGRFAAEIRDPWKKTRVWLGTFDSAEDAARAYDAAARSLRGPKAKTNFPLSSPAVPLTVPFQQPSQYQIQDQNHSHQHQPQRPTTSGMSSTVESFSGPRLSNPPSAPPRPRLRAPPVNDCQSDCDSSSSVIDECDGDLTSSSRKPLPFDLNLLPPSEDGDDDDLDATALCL
The target in series [3] is VviERF069-c (Vitis vinifera cv. Cardinal, UniProt A0A1L6BXE7 1-285).
VviERF069-c, sequence (A0A1L6BXE7 entry or part of it): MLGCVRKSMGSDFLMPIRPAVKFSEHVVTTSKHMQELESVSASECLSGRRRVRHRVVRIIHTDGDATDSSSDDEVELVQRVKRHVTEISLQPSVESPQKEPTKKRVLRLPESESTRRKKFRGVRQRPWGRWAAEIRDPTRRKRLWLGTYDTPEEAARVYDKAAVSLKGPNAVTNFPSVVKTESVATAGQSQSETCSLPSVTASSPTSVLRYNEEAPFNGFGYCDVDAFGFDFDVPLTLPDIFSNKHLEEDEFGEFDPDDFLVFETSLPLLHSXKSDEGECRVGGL
For series [4], the target named is VviERF2-c (Vitis vinifera cv. Cardinal, UniProt A0A1L6BXE6 1-282).
VviERF2-c, sequence (A0A1L6BXE6 entry or part of it): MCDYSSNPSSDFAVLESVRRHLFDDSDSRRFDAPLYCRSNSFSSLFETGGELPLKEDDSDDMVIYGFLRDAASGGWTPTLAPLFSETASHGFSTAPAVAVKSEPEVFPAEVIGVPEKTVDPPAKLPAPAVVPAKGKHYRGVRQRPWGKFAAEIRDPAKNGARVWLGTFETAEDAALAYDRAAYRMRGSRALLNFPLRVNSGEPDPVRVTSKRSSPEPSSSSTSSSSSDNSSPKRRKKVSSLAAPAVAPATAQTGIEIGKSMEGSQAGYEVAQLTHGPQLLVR
In series [5] the target is VviERF11-c (Vitis vinifera cv. Cardinal, UniProt A0A1L6BXF0 1-220).
VviERF11-c, sequence (A0A1L6BXF0 entry or part of it): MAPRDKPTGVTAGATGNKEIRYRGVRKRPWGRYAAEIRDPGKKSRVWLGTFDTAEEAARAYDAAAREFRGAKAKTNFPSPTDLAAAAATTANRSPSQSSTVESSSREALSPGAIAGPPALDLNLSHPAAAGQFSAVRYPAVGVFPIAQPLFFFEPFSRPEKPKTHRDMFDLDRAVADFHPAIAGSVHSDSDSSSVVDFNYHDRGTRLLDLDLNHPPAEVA

B1: Nt-chit GCC box (dsDNA)
DNA 1: AAGAGCCGCCACTA
DNA 2: TAGTGGCGGCTCTT
B1: the binding result in series [1], in series [2], in series [3], in series [4] and in series [5] was “no binding” in each case.

B2: Vcchit1b GCC box (dsDNA)
DNA 1: AAAAGCCGCCCACG
DNA 2: CGTGGGCGGCTTTT
For the molecule B2, the binding result in series [4] and in series [5] was “binds” throughout.

B3: Vcgns1 GCC box (dsDNA)
DNA 1: TGGAGCCGCCGGGA
DNA 2: TCCCGGCGGCTCCA
With B3, the binding result in series [1] was “no binding”.

B4: Le-osmo GCC box (dsDNA)
DNA 1: AAAAGCCGCCACAC
DNA 2: GTGTGGCGGCTTTT
Take B4: the binding result in series [1], in series [2], in series [3], in series [4] and in series [5] was “no binding” throughout.
